# In patent publication US20050112552A1, “Identification and isolation of novel polypeptides having PDZ domains and methods of using same” (AxCell Biosciences Corporation, priority 2000, published 2005):
# Like-named read-outs stand apart in the source and are kept apart here. Where no end group is shown, it is not given here.
# Key:
# [1] = molecular target: T1, interaction between the first PDZ domain in PSD-95 and the carboxy terminal peptide sequence of Na channel protein (Homo sapiens, UniProt P78352); assay: Competitive inhibition analysis of PDZ domain-peptide ligand interaction; assay type: binding; conditions: GST-PSD-95.1 coated plates, biotinylated Na+ channel peptide (SEQ ID NO:51), various inhibitor concentrations, A405 nm
# T1 construct: a GST-PSD-95.1 fusion protein of the first PDZ domain of PSD-95; made in house
# Description: FIG. 19 presents a competitive inhibition analysis of the interaction between the first PDZ domain in PSD-95 and the carboxy terminal peptide sequence of Na channel protein. GST fusion protein containing the first PZD domain of PSD-95 was contacted with a recognition unit-peptide complex corresponding to the 12 carboxyl terminal amino acids of Na^+ channel protein (FIG. 5A, SEQ ID NO:51) and various concentrations of 1 of 3 different inhibitor peptide complexes. Binding of the dimer inhibitor peptide in the presence of streptavidin alkaline phosphatase/Biotin-Ser-Gly-Ser-Gly-Pro-Pro-Ser-Pro-Asp-Arg-Asp-Arg-Glu-Ser-Ile-Val-COOH (SEQ ID NO:157) is presented as a solid box. Binding of the recognition unit in the presence of a peptide corresponding to the 5 carboxy terminal residues of the Na^+ channel protein (SEQ ID NO:105) (hatched box), and in the presence of a scrambled version of this 5mer (SEQ ID NO:158) (open box), are also presented. Binding of the biotinylated peptide was quantitated at A405 nm. […]
# An inhibition assay essentially as described in Section 5.4 was performed to assess the ability of PDZ ligands to uncouple NOS from the NMDA receptor. […] Particularly, biotinylated peptide and various concentrations of an inhibitor were added to microtiter plates coated with the GST-PSD-95.1 fusion protein and the binding interactions were quantified as described above. […]
# PDZP2.1 = PDZP2.1 (Homo sapiens, UniProt Q96QZ7, D549G/L550P); conditions: GST fusion protein
# Chain of PDZP2.1 (Q96QZ7 468-553 D549G/L550P limits assumed): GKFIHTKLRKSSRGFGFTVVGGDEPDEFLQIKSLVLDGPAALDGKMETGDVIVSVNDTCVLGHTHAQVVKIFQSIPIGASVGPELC
# Experimental: (§1) Assays that generate the data, e.g., that of FIGS. 5A and 5B, are conducted in the presence of various compounds that potentially effect the binding of the domains to respective recognition units.
# (§2) To determine the ligand preferences of the novel PDZ domain-containing clones described in Section 6.1 the novel PDZ domains derived from PDZP2, PDZP3, KIAA-147, and the three PDZ domains of PSD-95 and Chapsyn were subcloned into glutathione S-transferase (GST) expression vectors and expressed as GST fusion proteins. We examined the peptide ligand binding preferences of all sixteen individual PDZ domains in an enzyme-linked immunosorbent assay-based cross-affinity map experiment. As mentioned above, 45 peptides were chosen from database searches and grouped into seven classes (G-protein coupled receptors, viral proteins, glutamate receptors, ion channels, Frizzled homologs, transporters and various other proteins). We tested the ability of these peptides to bind to the known and novel PDZ domains.
# (§3) PCR fragments encoding individual PDZ domains were subcloned into the Sal1 and Notl sites of pGEX-4T-2 (Pharmacia Biotech, Inc.) and fusion proteins were expressed and purified as described by the manufacturer. ELISA based cross-affinity experiments were performed essentially as described by Sparks et al. (1996, Proc. Natl. Acad. Sci. USA 93:1540-1544) with the following modifications. Briefly, microtiter wells were coated with […] of fusion protein in 100 mM NaHCO3, blocked with SuperBlock TBS (Pierce) and washed four times with PBS, 0.05% Tween 20. Specific peptide-streptavidin/alkaline phosphatase complexes were added as above and unbound complexes washed five times with PBS, 0.05% Tween 20. Following addition of PNP substrate (p-nitrophenyl phosphate, Kirkegard & Perry Labs), peptide binding was quantitated after 30 min. at O.D. 405 nm. Relative binding measurements from three independent determinations were assigned to a scale as follows: O.D. units 0−0.5=(−), 0.5−1.0=(+), 1.0−2.0=(++), 2.0−3.0=(+++)>3.0=(++++). Peptide sequences used in cross-affinity experiments correspond to C-terminal segments of the following proteins: protein name (species: H=Human; M=Mouse; R=Rat; B=Bovine; V=Viral Origin, Genbank accession number); β1-adrenoreceptor (H, P18090); Serotonin Receptor (H, P28223); VIP Receptor (H, P32241); CRF Receptor (H, P34998); Orphan Receptor (H, P46089); β-1 Adrenergic Receptor (H, P08588); COM (ADE02, P03267); E6, HPV18 (V, P06463); UL25, HSV11 (V, P10209); GP3, EBV (V, P03200); TAT, HTL1A (V, P03409); UL14, VZVD (V, P09295); NMDA Receptor, NR2B (M, Q01097); NMDA Receptor subunit (H, U08266); mGluR1α (H, U31215); mGluR5a (H, D28538); mGluR (H, L76631); mGluR3 (H, AC002081); AMPA receptor (H, L20814); K^+-Channel, KV 1.4 (H, P22459); K^+-Channel Kir 2.2v (H, U53143); Na^+-Channel (a) (H, P15389); K^+-Channel (Kir) (H, D50582); Transmembrane Receptor (Homolog of frizzled ) (H, U43318); Homolog of frizzled (R, L02529); Homolog of frizzled (M, U43319); Glucose transporter (H, P11166); Excitatory Amino Acid Transporter (H, P43003); FAS Receptor (H, P25445); NGF Receptor (H, P08138); Neuropeptide Y Receptor, type 2 (H, P49146); Somatostatin Receptor, type 2 (H, P30874); CFTR (H, P13569); V-CAM (H, P19320); Ankyrin (H, Q01484); Fanconi anemia group C protein (H , Q00597); Calcium pump (H, P23634); APC protein (H, P25054); BCR, (H, P11274); MPK2 (H, P36507); Colorectal Mutant Cancer Protein (H, P23508); 65 KD Yes-Associated Protein (H, P46937); Neutrophil Cytosol Factor 1 (H, P14598); Neurexin III, (B, L27869); Neurexin II (B, L14855). Protein sequence homology searches were performed using BLAST (Altschul et al., 1990, J. Mol. Biol. 215:403-410).
# PDZP2.2 = PDZP2.2 (Homo sapiens, UniProt Q96QZ7); conditions: GST fusion protein
# Chain of PDZP2.2 (Q96QZ7 639-720 limits assumed): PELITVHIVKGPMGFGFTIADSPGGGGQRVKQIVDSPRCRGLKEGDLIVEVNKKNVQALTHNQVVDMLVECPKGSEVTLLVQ
# Experimental: as §1, §2, §3
# PDZP2.3 = PDZP2.3 (Homo sapiens, UniProt Q96QZ7); conditions: GST fusion protein
# Chain of PDZP2.3 (Q96QZ7 837-922 limits assumed): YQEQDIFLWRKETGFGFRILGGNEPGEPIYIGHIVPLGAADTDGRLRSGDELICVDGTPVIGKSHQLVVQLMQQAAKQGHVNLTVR
# Experimental: as §1, §2, §3
# PDZP2.4 = PDZP2.4 (Homo sapiens, UniProt Q96QZ7); conditions: GST fusion protein
# Chain of PDZP2.4 (Q96QZ7 with tags, fused parts or gaps isoform Q96QZ7-2 limits assumed): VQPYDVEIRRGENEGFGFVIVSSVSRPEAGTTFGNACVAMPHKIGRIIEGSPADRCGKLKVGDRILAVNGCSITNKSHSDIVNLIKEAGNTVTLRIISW
# Experimental: as §1, §2, §3
# PDZP3.1 = PDZP3.1 (Homo sapiens, UniProt Q8NI35); conditions: GST fusion protein
# Chain of PDZP3.1 (Q8NI35 1433-1519 limits assumed): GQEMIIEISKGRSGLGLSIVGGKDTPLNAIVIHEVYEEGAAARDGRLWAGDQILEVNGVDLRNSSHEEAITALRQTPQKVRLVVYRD
# Experimental: as §1, §2, §3
# PDZP3.2 = PDZP3.2 (Homo sapiens, UniProt Q8NI35); conditions: GST fusion protein
# Chain of PDZP3.2 (Q8NI35 1530-1614 limits assumed): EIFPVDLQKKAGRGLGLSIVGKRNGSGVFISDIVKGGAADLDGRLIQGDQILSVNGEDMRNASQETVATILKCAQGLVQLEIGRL
# Experimental: as §1, §2, §3
# [2] = molecular target: first PDZ domain of PSD-95 (PSD-95-1) (Homo sapiens, UniProt P78352); conditions: for binding to the first PDZ domain of PSD-95: cross-affinity map, no test compound, in words; for PDZ domain-recognition unit interaction, PSD-95-1: GST fusion protein
# Experimental: as §1, §2, §3
# [3] = molecular target: first PDZ domain of Chapsyn (Homo sapiens, UniProt Q15700, V177A); conditions: cross-affinity map; in words
# Description: as §2, §3
# [4] = molecular target: second PDZ domain of Chapsyn (Homo sapiens, UniProt Q15700); conditions: cross-affinity map; in words
# Description: as §2, §3
# [5] = molecular target: T2, second PDZ domain of PSD-95 (Homo sapiens, UniProt P78352); conditions: cross-affinity map, in words
# Description: as §2, §3
# [6] = molecular target: third PDZ domain of Chapsyn (Homo sapiens, UniProt Q15700); conditions: cross-affinity map; in words
# Description: as §2, §3
# [7] = molecular target: third PDZ domain of PSD-95 (Homo sapiens, UniProt P78352, D348N); conditions: cross-affinity map; in words
# Description: as §2, §3
# [8] = molecular target: T2, second PDZ domain of PSD-95; parameters: PCR fragments encoding individual PDZ domains were subcloned; made in house; conditions: stated as known; cited from earlier work
# [9] = listed as NMDA receptor NR2 subunit
substance,measurement,setting,value
Arg-Glu-Ser-Ile-Val-COOH (RESIV-OH) [5mer containing the carboxy terminal 5 residues of the Na+ channel peptide],inhibition of the interaction of the PDZ domain and ligand,[1],to a lesser extent
"SEQ ID NO. 42: biotinylated peptide, 12 carboxy terminal amino acids of NMDA (NR2B), mouse (VYEKLSSIESDV; not fully specified; also: biotinylated, position not given here)","PDZ domain-recognition unit interaction, PDZP2.1",PDZP2.1; in the presence of Compound A,+ (0.5−1.0=(+))
same,"PDZ domain-recognition unit interaction, PDZP2.1",PDZP2.1; in the presence of Compound B,++++ (>3.0=(++++))
same,"PDZ domain-recognition unit interaction, PDZP2.1",PDZP2.1; in the presence of Compound C,+ (0.5−1.0=(+))
same,"PDZ domain-recognition unit interaction, PDZ2.2",PDZP2.2; in the presence of Compound A,+ (0.5−1.0=(+))
same,"PDZ domain-recognition unit interaction, PDZ2.2",PDZP2.2; in the presence of Compound B,+++ (2.0−3.0=(+++))
same,"PDZ domain-recognition unit interaction, PDZ2.2",PDZP2.2; in the presence of Compound C,+ (0.5−1.0=(+))
same,"PDZ domain-recognition unit interaction, PDZ2.3",PDZP2.3; in the presence of Compound A,+ (0.5−1.0=(+))
same,"PDZ domain-recognition unit interaction, PDZ2.3",PDZP2.3; in the presence of Compound B,++++ (>3.0=(++++))
same,"PDZ domain-recognition unit interaction, PDZ2.3",PDZP2.3; in the presence of Compound C,+ (0.5−1.0=(+))
same,"PDZ domain-recognition unit interaction, PDZ2.4",PDZP2.4; in the presence of Compound A,+ (0.5−1.0=(+))
same,"PDZ domain-recognition unit interaction, PDZ2.4",PDZP2.4; in the presence of Compound B,++++ (>3.0=(++++))
same,"PDZ domain-recognition unit interaction, PDZ2.4",PDZP2.4; in the presence of Compound C,+ (0.5−1.0=(+))
same,"PDZ domain-recognition unit interaction, PDZ3.1",PDZP3.1; in the presence of Compound A,+ (0.5−1.0=(+))
same,"PDZ domain-recognition unit interaction, PDZ3.1",PDZP3.1; in the presence of Compound B,++++ (>3.0=(++++))
same,"PDZ domain-recognition unit interaction, PDZ3.1",PDZP3.1; in the presence of Compound C,++++ (>3.0=(++++))
same,"PDZ domain-recognition unit interaction, PDZ3.2",PDZP3.2; in the presence of Compound A,− (O.D. units 0−0.5=(−))
same,"PDZ domain-recognition unit interaction, PDZ3.2",PDZP3.2; in the presence of Compound B,− (O.D. units 0−0.5=(−))
same,"PDZ domain-recognition unit interaction, PDZ3.2",PDZP3.2; in the presence of Compound C,− (O.D. units 0−0.5=(−))
same,binding to the first PDZ domain of PSD-95,[2],positive interaction
same,binding to the first PDZ domain of PSD-95,[2]; [9],bind to the first and second PDZ domain
same,"PDZ domain-recognition unit interaction, PSD-95-1",[2]; in the presence of Compound A,− (O.D. units 0−0.5=(−))
same,"PDZ domain-recognition unit interaction, PSD-95-1",[2]; in the presence of Compound B,+++ (2.0−3.0=(+++))
same,"PDZ domain-recognition unit interaction, PSD-95-1",[2]; in the presence of Compound C,+++ (2.0−3.0=(+++))
same,binding to the first PDZ domain of Chapsyn,[3],same binding specificities
same,binding to the second PDZ domain of Chapsyn,[4],same binding specificities
same,binding to the second PDZ domain of PSD-95,[5],positive interaction
same,binding to the second PDZ domain of PSD-95,[5]; [9],bind to the first and second PDZ domain
same,binding to the third PDZ domain of Chapsyn,[6],same binding specificities
same,binding to the third PDZ domain of PSD-95,[7],not the third PDZ domain
same,binding to the second PDZ domain of PSD-95,[8],binds
AC-Cys-Pro-Pro-Ser-Pro-Asp-Arg-Asp-Arg-Glu-Ser-Ile-Val-COOH (Ac-CPPSPDRDRESIV-OH) [dimer inhibitor],inhibition of the interaction of the PDZ domain and ligand,[1],able to inhibit
